Data as given in paper PMC9482650, “Quantitative fragmentomics allow affinity mapping of interactomes” (Nature Communications, 2022).

Key:
Assay in all cases: holdup assay
Design in all cases: key: below the threshold = too weak to quantify, mostly under pKd 3.1 to 4
APBA2_2, Q99767 = biological target: T1, APBA2_2, Q99767
T1 sequence (Q99767 654-744, limits assumed, looked up): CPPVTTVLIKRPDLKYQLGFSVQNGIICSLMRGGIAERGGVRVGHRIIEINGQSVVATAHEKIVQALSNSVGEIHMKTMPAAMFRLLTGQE

DLG1_1, Q12959 = biological target: DLG1_1, Q12959
DLG4_3, P78352 = biological target: DLG4_3, P78352
Sequence of DLG4_3, P78352 (P78352 306-403): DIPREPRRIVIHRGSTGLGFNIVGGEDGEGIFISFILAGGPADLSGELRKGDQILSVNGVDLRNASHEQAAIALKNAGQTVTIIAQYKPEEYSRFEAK

FRMPD2_3, Q68DX3 = biological target: FRMPD2_3, Q68DX3
Sequence of FRMPD2_3, Q68DX3 (Q68DX3 1073-1166): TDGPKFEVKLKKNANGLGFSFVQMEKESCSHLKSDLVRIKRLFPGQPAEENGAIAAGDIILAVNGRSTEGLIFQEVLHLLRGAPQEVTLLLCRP

GORASP1, Q9BQQ3 = biological target: GORASP1, Q9BQQ3
Sequence of GORASP1, Q9BQQ3 (Q9BQQ3 1-208): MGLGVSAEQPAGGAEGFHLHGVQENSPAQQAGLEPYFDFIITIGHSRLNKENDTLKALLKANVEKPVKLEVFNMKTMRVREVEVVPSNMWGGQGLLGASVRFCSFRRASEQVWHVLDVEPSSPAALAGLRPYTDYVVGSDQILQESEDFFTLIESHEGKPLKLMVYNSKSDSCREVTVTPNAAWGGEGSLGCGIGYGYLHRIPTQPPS

GRIP1_4, Q9Y3R0 = biological target: T2, GRIP1_4, Q9Y3R0
T2 sequence (Q9Y3R0 467-571, limits assumed, looked up): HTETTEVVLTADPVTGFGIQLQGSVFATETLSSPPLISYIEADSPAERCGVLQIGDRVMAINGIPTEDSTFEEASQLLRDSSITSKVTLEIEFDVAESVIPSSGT

GRIP2_6, Q9C0E4 = biological target: GRIP2_6, Q9C0E4
Sequence of GRIP2_6, Q9C0E4 (Q9C0E4 648-740): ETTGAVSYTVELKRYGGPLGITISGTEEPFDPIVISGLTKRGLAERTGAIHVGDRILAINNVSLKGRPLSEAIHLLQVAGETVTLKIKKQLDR

HTRA2, O43464 = biological target: HTRA2, O43464
Sequence of HTRA2, O43464 (O43464 355-458): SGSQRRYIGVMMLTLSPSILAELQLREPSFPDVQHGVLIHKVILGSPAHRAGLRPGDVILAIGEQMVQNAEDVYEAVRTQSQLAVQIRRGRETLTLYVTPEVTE

IL16_1, Q14005 = biological target: IL16_1, Q14005
Sequence of IL16_1, Q14005 (Q14005 210-306): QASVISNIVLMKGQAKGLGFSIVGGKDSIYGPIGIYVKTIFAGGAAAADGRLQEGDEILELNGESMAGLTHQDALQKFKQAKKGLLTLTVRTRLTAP

LNX1_1, Q8TBB1 = biological target: LNX1_1, Q8TBB1
Sequence of LNX1_1, Q8TBB1 (Q8TBB1 261-371): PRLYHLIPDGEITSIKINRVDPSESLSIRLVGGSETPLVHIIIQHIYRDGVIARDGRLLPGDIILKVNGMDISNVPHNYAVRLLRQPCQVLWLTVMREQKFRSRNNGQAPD

LNX1_2, Q8TBB1 = biological target: LNX1_2, Q8TBB1
Sequence of LNX1_2, Q8TBB1 (Q8TBB1 371-470): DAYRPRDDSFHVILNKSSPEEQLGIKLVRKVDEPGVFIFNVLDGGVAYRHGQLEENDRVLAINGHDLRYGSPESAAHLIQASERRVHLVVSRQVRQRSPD

LRRC7, Q96NW7 = biological target: T3, LRRC7, Q96NW7
T3 sequence (Q96NW7 1440-1537, limits assumed, looked up): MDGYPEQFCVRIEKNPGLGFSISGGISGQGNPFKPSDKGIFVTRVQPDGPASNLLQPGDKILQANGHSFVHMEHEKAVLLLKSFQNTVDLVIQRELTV

MAGI1_2, Q96QZ7 = biological target: MAGI1_2, Q96QZ7
Sequence of MAGI1_2, Q96QZ7 (Q96QZ7 456-580): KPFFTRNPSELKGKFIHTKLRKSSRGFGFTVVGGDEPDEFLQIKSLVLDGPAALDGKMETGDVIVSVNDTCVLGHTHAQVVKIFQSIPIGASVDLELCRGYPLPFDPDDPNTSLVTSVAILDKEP

MAGI2_4, Q86UL8 = biological target: MAGI2_4, Q86UL8
Sequence of MAGI2_4, Q86UL8 (Q86UL8 772-865): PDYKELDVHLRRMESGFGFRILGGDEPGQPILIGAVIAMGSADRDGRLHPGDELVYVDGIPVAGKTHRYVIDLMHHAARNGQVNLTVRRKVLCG

MPDZ_5, O75970 = biological target: T4, MPDZ_5, O75970
T4 sequence (O75970 695-796, limits assumed, looked up): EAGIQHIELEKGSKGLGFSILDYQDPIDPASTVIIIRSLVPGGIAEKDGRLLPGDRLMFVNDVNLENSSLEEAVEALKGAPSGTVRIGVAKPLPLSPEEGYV

MPP2, Q14168 = biological target: T5, MPP2, Q14168
T5 sequence (Q14168 180-250, limits assumed, looked up): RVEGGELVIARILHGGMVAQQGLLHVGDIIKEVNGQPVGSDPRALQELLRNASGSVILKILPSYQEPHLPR

MPP6, Q9NZW5 = biological target: T6, MPP6, Q9NZW5
T6 sequence (Q9NZW5 125-219, limits assumed, looked up): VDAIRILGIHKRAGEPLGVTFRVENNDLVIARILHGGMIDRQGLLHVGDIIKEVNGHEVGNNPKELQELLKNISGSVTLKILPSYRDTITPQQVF

MPP7, Q5T2T1 = biological target: T7, MPP7, Q5T2T1
T7 sequence (Q5T2T1 134-230, limits assumed, looked up): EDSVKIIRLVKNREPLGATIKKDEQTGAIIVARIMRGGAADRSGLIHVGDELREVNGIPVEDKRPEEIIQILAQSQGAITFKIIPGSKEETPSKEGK

NHERF3_1, Q5T2W1 = biological target: T8, NHERF3_1, Q5T2W1
T8 sequence (Q5T2W1 4-100, limits assumed, looked up): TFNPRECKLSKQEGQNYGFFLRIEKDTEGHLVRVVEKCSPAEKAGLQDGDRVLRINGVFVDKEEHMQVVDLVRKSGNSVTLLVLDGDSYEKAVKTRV

PDZD2_2, O15018 = biological target: T9, PDZD2_2, O15018
T9 sequence (O15018 329-429, limits assumed, looked up): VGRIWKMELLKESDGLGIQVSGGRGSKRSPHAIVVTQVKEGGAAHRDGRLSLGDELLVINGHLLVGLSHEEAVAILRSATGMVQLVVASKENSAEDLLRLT

PDZD7_3, Q9H5P4 = biological target: T10, PDZD7_3, Q9H5P4
T10 sequence (Q9H5P4 857-944, limits assumed, looked up): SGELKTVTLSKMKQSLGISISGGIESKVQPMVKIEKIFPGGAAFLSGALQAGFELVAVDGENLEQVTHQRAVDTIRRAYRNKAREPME

RHPN1, Q8TCX5 = biological target: T11, RHPN1, Q8TCX5
T11 sequence (Q8TCX5 508-602, limits assumed, looked up): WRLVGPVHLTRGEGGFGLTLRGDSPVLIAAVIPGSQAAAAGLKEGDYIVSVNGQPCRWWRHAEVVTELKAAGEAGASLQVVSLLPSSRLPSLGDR

SCRIB_2, Q14160 = biological target: SCRIB_2, Q14160
Sequence of SCRIB_2, Q14160 (Q14160 857-960): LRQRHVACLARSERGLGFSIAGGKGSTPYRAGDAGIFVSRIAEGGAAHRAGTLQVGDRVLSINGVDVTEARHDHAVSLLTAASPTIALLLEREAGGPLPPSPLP

SYNJ2BP, P57105 = biological target: T12, SYNJ2BP, P57105
T12 sequence (P57105 8-110, limits assumed, looked up): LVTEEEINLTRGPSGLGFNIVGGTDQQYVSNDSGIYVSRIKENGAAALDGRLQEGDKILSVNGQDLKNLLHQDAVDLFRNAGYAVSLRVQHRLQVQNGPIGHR

TJP3_3, O95049 = biological target: T13, TJP3_3, O95049
T13 sequence (O95049 375-456, limits assumed, looked up): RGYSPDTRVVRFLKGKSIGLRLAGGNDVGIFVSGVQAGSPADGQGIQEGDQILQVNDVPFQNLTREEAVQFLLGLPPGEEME

[1] = plain residues with an end cap or a label only (N-terminal biotin on a linker: (peg)3)
[2] = plain residues with an end cap or a label only (N-terminal biotin on a linker: ado-ado)

QQSMSSADSTQA [SARS-Cov2-N, P0DTC9]
pKd (APBA2_2, Q99767; [1]): below the threshold | pKd (DLG1_1, Q12959; [1]): below the threshold | pKd (DLG4_3, P78352; [1]): below the threshold | pKd (FRMPD2_3, Q68DX3; [1]): below the threshold | pKd (GORASP1, Q9BQQ3; [1]): below the threshold | pKd (GRIP1_4, Q9Y3R0; [1]): below the threshold | pKd (GRIP2_6, Q9C0E4; [1]): below the threshold | pKd (HTRA2, O43464; [1]): below the threshold | pKd (IL16_1, Q14005; [1]): below the threshold | pKd (LNX1_1, Q8TBB1; [1]): below the threshold | pKd (LNX1_2, Q8TBB1; [1]): below the threshold | pKd (LRRC7, Q96NW7; [1]): below the threshold | pKd (MAGI1_2, Q96QZ7; [1]): below the threshold | pKd (MAGI2_4, Q86UL8; [1]): below the threshold | pKd (MPDZ_5, O75970; [1]): below the threshold | pKd (MPP2, Q14168; [1]): below the threshold | pKd (MPP6, Q9NZW5; [1]): below the threshold | pKd (MPP7, Q5T2T1; [1]): below the threshold | pKd (NHERF3_1, Q5T2W1; [1]): below the threshold | pKd (PDZD2_2, O15018; [1]): below the threshold | pKd (PDZD7_3, Q9H5P4; [1]): below the threshold | pKd (RHPN1, Q8TCX5; [1]): below the threshold | pKd (SCRIB_2, Q14160; [1]): below the threshold | pKd (SYNJ2BP, P57105; [1]): below the threshold | pKd (TJP3_3, O95049; [1]): below the threshold

APIAGFSSFV [SDK2, Q58EX2]
pKd (APBA2_2, Q99767; [2]): below the threshold | pKd (DLG1_1, Q12959; [2]): 4.21 | pKd (DLG4_3, P78352; [2]): below the threshold | pKd (FRMPD2_3, Q68DX3; [2]): below the threshold | pKd (GORASP1, Q9BQQ3; [2]): 3.75 | pKd (GRIP1_4, Q9Y3R0; [2]): below the threshold | pKd (GRIP2_6, Q9C0E4; [2]): below the threshold | pKd (HTRA2, O43464; [2]): 4.07 | pKd (IL16_1, Q14005; [2]): 4.06 | pKd (LNX1_1, Q8TBB1; [2]): 5.16 | pKd (LNX1_2, Q8TBB1; [2]): below the threshold | pKd (LRRC7, Q96NW7; [2]): 3.65 | pKd (MAGI1_2, Q96QZ7; [2]): below the threshold | pKd (MAGI2_4, Q86UL8; [2]): 3.94 | pKd (MPDZ_5, O75970; [2]): below the threshold | pKd (MPP2, Q14168; [2]): below the threshold | pKd (MPP6, Q9NZW5; [2]): below the threshold | pKd (MPP7, Q5T2T1; [2]): below the threshold | pKd (NHERF3_1, Q5T2W1; [2]): 5.08 | pKd (PDZD2_2, O15018; [2]): 5.54 | pKd (PDZD7_3, Q9H5P4; [2]): 4.63 | pKd (RHPN1, Q8TCX5; [2]): 4.76 | pKd (SCRIB_2, Q14160; [2]): 3.62 | pKd (SYNJ2BP, P57105; [2]): 4.72 | pKd (TJP3_3, O95049; [2]): 3.82

ELSATVTTDC [TRIP6, Q15654]
pKd (APBA2_2, Q99767; [2]): below the threshold | pKd (DLG1_1, Q12959; [2]): below the threshold | pKd (DLG4_3, P78352; [2]): below the threshold | pKd (FRMPD2_3, Q68DX3; [2]): below the threshold | pKd (GORASP1, Q9BQQ3; [2]): below the threshold | pKd (GRIP1_4, Q9Y3R0; [2]): below the threshold | pKd (GRIP2_6, Q9C0E4; [2]): below the threshold | pKd (HTRA2, O43464; [2]): below the threshold | pKd (IL16_1, Q14005; [2]): below the threshold | pKd (LNX1_1, Q8TBB1; [2]): 3.95 | pKd (LNX1_2, Q8TBB1; [2]): 3.88 | pKd (LRRC7, Q96NW7; [2]): below the threshold | pKd (MAGI1_2, Q96QZ7; [2]): below the threshold | pKd (MAGI2_4, Q86UL8; [2]): below the threshold | pKd (MPDZ_5, O75970; [2]): below the threshold | pKd (MPP2, Q14168; [2]): below the threshold | pKd (MPP6, Q9NZW5; [2]): below the threshold | pKd (MPP7, Q5T2T1; [2]): 3.65 | pKd (NHERF3_1, Q5T2W1; [2]): below the threshold | pKd (PDZD2_2, O15018; [2]): 4.2 | pKd (PDZD7_3, Q9H5P4; [2]): 3.8 | pKd (RHPN1, Q8TCX5; [2]): 4.32 | pKd (SCRIB_2, Q14160; [2]): below the threshold | pKd (SYNJ2BP, P57105; [2]): 4.68 | pKd (TJP3_3, O95049; [2]): below the threshold

EDPRVEVTQF [SLC22A9, Q8IVM8]
pKd (APBA2_2, Q99767; [2]): below the threshold | pKd (DLG1_1, Q12959; [2]): below the threshold | pKd (DLG4_3, P78352; [2]): below the threshold | pKd (FRMPD2_3, Q68DX3; [2]): below the threshold | pKd (GORASP1, Q9BQQ3; [2]): below the threshold | pKd (GRIP1_4, Q9Y3R0; [2]): below the threshold | pKd (GRIP2_6, Q9C0E4; [2]): below the threshold | pKd (HTRA2, O43464; [2]): below the threshold | pKd (IL16_1, Q14005; [2]): below the threshold | pKd (LNX1_1, Q8TBB1; [2]): below the threshold | pKd (LNX1_2, Q8TBB1; [2]): below the threshold | pKd (LRRC7, Q96NW7; [2]): below the threshold | pKd (MAGI1_2, Q96QZ7; [2]): below the threshold | pKd (MAGI2_4, Q86UL8; [2]): below the threshold | pKd (MPDZ_5, O75970; [2]): below the threshold | pKd (MPP2, Q14168; [2]): below the threshold | pKd (MPP6, Q9NZW5; [2]): below the threshold | pKd (MPP7, Q5T2T1; [2]): below the threshold | pKd (NHERF3_1, Q5T2W1; [2]): 4.58 | pKd (PDZD2_2, O15018; [2]): below the threshold | pKd (PDZD7_3, Q9H5P4; [2]): 4.23 | pKd (RHPN1, Q8TCX5; [2]): 4.4 | pKd (SCRIB_2, Q14160; [2]): below the threshold | pKd (SYNJ2BP, P57105; [2]): below the threshold | pKd (TJP3_3, O95049; [2]): below the threshold

LAHVKHKEQI [AQP3, Q92482]
pKd (APBA2_2, Q99767; [2]): below the threshold | pKd (DLG1_1, Q12959; [2]): below the threshold | pKd (DLG4_3, P78352; [2]): below the threshold | pKd (FRMPD2_3, Q68DX3; [2]): below the threshold | pKd (GORASP1, Q9BQQ3; [2]): below the threshold | pKd (GRIP1_4, Q9Y3R0; [2]): below the threshold | pKd (GRIP2_6, Q9C0E4; [2]): below the threshold | pKd (HTRA2, O43464; [2]): below the threshold | pKd (IL16_1, Q14005; [2]): below the threshold | pKd (LNX1_1, Q8TBB1; [2]): below the threshold | pKd (LNX1_2, Q8TBB1; [2]): below the threshold | pKd (LRRC7, Q96NW7; [2]): below the threshold | pKd (MAGI1_2, Q96QZ7; [2]): below the threshold | pKd (MAGI2_4, Q86UL8; [2]): below the threshold | pKd (MPDZ_5, O75970; [2]): below the threshold | pKd (MPP2, Q14168; [2]): below the threshold | pKd (MPP6, Q9NZW5; [2]): below the threshold | pKd (MPP7, Q5T2T1; [2]): below the threshold | pKd (NHERF3_1, Q5T2W1; [2]): below the threshold | pKd (PDZD2_2, O15018; [2]): below the threshold | pKd (PDZD7_3, Q9H5P4; [2]): below the threshold | pKd (RHPN1, Q8TCX5; [2]): below the threshold | pKd (SCRIB_2, Q14160; [2]): below the threshold | pKd (SYNJ2BP, P57105; [2]): below the threshold | pKd (TJP3_3, O95049; [2]): below the threshold
